In patent US10500249B2, “Compositions and methods for preventing or treating diseases, conditions, or processes characterized by aberrant fibroblast proliferation and extracellular matrix deposition” (MOERAE MATRIX, INC., priority 2014, dated 2019):

Tests used:
Assay in all cases: Kinase Profiling Assay
Assay type in all cases: biochemical
Conditions in all cases: 100 μM
BrSK1 (h) = target: T1, BrSK1 (h) (Homo sapiens, UniProt Q8TDC3)
T1 sequence (Q8TDC3 1-778): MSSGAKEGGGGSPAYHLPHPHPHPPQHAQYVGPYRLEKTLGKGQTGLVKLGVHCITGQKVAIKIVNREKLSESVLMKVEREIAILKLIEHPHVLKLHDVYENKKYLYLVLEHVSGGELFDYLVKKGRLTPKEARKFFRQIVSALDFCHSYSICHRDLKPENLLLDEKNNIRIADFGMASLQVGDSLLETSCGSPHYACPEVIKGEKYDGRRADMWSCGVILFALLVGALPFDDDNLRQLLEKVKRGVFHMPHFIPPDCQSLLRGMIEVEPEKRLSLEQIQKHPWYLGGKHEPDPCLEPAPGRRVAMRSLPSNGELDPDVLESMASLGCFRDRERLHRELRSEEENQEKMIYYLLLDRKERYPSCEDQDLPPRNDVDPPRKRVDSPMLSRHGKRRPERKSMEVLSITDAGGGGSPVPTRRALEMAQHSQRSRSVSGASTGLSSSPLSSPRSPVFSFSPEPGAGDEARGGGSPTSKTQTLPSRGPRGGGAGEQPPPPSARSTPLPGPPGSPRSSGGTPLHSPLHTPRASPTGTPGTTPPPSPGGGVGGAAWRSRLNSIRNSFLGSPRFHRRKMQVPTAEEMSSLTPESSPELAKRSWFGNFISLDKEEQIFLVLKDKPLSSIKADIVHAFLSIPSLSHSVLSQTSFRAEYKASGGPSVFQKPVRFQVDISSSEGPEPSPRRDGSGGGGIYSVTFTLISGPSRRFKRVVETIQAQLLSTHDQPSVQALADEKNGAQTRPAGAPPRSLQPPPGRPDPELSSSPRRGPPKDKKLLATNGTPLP
Procedure, shortened: (§1)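 Each kinase activity was measured in duplicate. Phosphorylation of a positively charged substrate with radiolabeled phosphate from ATP was captured on a negatively charged filter, counted by scintillation and expressed relative to a 100% activity control. MK2 inhibitory peptides were screened for specificity across 266 human kinases.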

PKCβII (h) = target: T2, PKCβII (h) (Homo sapiens, UniProt P05771)
T2 construct: purchased Millipore
T2 sequence (P05771 1-673 isoform P05771-2): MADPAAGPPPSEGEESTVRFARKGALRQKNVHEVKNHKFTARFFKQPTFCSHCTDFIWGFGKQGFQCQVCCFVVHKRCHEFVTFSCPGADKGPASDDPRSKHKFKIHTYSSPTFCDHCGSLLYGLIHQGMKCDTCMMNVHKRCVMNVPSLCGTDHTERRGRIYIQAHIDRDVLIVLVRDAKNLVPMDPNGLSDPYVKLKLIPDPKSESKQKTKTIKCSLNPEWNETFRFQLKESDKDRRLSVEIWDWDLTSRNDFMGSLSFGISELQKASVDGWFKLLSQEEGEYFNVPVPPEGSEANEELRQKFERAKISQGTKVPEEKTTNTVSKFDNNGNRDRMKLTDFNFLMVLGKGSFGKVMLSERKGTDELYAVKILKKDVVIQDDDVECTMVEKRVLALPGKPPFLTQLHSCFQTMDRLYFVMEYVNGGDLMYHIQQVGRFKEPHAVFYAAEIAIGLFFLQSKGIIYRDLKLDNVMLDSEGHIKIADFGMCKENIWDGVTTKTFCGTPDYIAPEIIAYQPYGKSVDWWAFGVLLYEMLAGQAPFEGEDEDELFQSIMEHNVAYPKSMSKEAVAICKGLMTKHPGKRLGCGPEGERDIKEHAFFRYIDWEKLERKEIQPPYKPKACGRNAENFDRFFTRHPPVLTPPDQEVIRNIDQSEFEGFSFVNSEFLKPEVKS
Procedure, shortened: as §1

Mnk2 (h) = target: T3, Mnk2 (h) (Homo sapiens, UniProt Q9HBH9)
T3 construct: purchased Millipore
T3 sequence (Q9HBH9 whole entry): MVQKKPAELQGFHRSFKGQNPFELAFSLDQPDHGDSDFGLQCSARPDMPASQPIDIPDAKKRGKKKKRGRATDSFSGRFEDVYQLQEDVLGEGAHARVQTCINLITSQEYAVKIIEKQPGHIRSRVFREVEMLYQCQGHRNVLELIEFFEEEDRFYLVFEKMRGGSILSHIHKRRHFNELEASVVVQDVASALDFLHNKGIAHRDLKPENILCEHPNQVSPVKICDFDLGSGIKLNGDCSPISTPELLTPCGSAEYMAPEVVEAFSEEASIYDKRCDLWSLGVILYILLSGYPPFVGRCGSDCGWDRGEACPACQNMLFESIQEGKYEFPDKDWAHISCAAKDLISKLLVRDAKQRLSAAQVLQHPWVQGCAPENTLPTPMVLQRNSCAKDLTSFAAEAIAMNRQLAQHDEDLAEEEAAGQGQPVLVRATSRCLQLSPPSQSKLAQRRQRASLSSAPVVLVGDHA
Procedure, shortened: as §1

Met(M1268T) (h) = Met(M1268T) (h) (Homo sapiens, UniProt P08581, M1250T)
Procedure, shortened: as §1

PRAK (h) = target: T4, PRAK (h) (Homo sapiens, UniProt Q8IW41)
T4 sequence (Q8IW41 1-473): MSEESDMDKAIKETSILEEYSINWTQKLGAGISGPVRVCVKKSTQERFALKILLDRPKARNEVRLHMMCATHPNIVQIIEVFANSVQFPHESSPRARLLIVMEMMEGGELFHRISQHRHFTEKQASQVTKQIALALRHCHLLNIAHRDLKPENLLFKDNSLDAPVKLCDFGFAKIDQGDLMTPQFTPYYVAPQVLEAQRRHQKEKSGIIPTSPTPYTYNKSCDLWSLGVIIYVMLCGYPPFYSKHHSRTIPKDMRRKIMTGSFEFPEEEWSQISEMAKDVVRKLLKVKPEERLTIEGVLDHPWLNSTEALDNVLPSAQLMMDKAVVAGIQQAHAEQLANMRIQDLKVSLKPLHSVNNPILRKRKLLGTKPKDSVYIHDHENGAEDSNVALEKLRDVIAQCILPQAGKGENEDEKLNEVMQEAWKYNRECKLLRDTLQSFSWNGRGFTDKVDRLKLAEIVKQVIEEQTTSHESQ
Procedure, shortened: as §1

MST1 (h) = target: T5, MST1 (h) (Homo sapiens, UniProt Q13043)
T5 construct: purchased Millipore
T5 sequence (Q13043 1-487): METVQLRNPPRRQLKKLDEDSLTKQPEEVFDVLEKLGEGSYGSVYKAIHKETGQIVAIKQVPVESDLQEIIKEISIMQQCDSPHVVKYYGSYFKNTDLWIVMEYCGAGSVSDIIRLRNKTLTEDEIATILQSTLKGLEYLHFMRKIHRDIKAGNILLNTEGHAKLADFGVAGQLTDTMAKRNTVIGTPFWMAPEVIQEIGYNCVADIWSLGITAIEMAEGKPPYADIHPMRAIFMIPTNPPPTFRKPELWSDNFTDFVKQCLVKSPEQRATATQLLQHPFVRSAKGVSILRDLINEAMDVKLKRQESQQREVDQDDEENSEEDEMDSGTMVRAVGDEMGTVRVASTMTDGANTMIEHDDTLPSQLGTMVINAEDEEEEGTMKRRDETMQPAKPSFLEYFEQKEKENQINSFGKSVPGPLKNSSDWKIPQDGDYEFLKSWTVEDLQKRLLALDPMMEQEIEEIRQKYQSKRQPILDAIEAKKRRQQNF
Procedure, shortened: as §1

KDR (h) = KDR (h) (Homo sapiens, UniProt P35968)
Sequence of KDR (h) (P35968 20-1356): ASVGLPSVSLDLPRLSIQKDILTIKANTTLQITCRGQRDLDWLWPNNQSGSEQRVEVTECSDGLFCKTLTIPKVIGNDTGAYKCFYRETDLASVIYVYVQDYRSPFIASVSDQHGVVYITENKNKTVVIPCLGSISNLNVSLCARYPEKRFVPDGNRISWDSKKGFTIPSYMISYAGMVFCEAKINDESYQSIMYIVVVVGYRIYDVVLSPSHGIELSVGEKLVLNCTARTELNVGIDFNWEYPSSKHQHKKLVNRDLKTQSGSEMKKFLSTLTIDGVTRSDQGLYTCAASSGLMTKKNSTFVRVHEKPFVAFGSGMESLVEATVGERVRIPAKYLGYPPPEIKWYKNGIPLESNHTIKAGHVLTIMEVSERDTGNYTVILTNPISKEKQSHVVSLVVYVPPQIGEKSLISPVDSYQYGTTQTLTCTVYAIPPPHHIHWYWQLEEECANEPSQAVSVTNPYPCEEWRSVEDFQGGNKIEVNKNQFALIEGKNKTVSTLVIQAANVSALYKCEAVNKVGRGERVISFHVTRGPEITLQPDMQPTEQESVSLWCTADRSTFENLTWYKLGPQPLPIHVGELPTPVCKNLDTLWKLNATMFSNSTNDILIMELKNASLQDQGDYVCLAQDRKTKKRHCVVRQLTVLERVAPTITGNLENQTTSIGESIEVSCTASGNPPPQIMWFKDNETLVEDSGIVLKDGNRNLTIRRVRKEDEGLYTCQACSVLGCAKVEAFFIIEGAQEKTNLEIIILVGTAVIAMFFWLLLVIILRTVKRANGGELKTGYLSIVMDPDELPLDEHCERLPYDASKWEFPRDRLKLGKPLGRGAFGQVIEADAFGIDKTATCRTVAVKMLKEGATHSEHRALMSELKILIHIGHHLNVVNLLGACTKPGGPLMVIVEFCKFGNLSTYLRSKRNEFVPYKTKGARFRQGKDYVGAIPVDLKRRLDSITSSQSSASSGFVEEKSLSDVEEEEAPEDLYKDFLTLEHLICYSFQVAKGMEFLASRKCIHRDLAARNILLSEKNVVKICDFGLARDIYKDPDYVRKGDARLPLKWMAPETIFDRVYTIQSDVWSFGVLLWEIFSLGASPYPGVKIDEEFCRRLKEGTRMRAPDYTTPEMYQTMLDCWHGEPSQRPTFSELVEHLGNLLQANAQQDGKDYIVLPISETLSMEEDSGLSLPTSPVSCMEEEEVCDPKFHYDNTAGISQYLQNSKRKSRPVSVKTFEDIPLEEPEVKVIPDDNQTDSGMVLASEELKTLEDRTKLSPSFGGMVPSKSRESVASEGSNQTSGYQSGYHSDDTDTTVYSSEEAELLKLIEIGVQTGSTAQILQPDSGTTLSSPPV
Procedure, shortened: as §1

AMPKα2 (h) = AMPKα2 (h) (Homo sapiens, UniProt P54646)
Sequence of AMPKα2 (h) (P54646 whole entry): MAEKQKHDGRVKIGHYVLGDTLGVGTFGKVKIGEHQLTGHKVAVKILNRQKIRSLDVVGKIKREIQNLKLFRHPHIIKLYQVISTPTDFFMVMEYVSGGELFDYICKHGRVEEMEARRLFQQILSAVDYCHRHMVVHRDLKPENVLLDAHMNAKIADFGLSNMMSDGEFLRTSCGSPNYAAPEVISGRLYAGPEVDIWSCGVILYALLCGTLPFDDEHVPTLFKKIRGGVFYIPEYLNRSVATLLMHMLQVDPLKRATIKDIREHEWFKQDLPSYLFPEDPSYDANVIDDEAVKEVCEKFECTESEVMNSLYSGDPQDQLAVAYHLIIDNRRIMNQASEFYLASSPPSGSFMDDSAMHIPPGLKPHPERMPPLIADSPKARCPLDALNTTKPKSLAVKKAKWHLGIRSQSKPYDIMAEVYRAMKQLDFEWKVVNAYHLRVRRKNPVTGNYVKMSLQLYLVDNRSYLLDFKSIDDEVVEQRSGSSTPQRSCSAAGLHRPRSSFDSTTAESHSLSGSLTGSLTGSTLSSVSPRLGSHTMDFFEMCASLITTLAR
Sequence of AMPKα2 (h) (Q9Y478 whole entry partner): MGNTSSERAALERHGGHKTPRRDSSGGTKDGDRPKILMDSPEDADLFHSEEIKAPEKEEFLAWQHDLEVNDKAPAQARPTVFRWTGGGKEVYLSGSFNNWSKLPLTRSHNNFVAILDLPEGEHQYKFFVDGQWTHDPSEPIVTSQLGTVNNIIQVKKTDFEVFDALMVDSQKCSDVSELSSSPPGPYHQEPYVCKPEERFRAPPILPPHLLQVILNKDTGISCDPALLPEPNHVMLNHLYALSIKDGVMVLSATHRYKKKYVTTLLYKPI
Sequence of AMPKα2 (h) (P54619 whole entry partner): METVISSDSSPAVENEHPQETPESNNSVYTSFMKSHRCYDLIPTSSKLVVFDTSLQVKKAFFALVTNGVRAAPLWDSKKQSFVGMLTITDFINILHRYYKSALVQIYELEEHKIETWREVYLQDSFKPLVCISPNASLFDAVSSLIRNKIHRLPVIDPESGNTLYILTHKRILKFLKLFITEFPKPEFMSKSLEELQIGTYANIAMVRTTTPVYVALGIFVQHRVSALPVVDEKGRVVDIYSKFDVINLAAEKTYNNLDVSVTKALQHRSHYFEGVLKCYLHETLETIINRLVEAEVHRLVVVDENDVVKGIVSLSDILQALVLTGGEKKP
Procedure, shortened: as §1

ACK1 (h) = ACK1 (h) (Homo sapiens, UniProt Q07912)
Sequence of ACK1 (h) (Q07912 whole entry): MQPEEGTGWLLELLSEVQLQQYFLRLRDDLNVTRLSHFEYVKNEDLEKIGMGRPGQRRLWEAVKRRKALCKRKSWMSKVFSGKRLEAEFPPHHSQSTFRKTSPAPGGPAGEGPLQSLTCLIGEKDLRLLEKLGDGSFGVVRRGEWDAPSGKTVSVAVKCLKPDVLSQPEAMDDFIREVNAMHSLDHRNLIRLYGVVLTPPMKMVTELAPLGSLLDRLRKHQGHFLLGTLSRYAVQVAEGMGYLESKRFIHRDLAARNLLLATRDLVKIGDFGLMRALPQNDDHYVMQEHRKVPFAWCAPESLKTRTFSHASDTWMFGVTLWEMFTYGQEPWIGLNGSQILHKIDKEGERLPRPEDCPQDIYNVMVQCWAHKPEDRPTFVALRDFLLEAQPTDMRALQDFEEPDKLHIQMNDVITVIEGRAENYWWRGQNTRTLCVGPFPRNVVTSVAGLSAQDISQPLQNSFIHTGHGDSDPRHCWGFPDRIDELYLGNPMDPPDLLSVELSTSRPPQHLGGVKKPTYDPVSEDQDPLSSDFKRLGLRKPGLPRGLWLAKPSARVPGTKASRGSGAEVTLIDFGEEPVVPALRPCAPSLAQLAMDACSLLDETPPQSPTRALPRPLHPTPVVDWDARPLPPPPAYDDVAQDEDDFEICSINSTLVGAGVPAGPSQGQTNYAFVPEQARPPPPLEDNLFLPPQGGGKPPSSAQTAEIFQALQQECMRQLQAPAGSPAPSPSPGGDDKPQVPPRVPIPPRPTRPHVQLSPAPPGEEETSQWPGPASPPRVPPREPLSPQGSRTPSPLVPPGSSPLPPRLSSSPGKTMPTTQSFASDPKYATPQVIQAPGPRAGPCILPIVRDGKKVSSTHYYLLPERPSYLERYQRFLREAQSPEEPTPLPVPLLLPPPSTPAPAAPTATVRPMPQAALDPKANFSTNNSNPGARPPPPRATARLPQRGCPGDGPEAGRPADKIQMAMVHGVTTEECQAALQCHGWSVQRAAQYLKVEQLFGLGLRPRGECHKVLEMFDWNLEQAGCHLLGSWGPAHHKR
Procedure, shortened: as §1

| Sequence | % activity (BrSK1 (h)) | % activity (PKCβII (h)) | % activity (Mnk2 (h)) | % activity (Met(M1268T) (h)) | % activity (PRAK (h)) | % activity (MST1 (h)) | % activity (KDR (h)) | % activity (AMPKα2 (h)) | % activity (ACK1 (h)) |
| --- | --- | --- | --- | --- | --- | --- | --- | --- | --- |
| FAKLAARLYRKALARQLGVAA [MMI-0300] | 67% | 82% | 89% | 255% | 128% | 14% | 101% | 54% | – |
| HRRIKAWLKKIKALARQLGVAA (Mammalian) [MMI-0500] | 72% | 3% | 6% | 239% | 95% | 3% | 15% | 9% | 64% |
| KAFAKLAARLYRKALARQLGVAA [MMI-0400] | 76% | 75% | 86% | 265% | 118% | 6% | 94% | 58% | 95% |
| YARAAARQARAKALNRQLGVA (Mammalian) [MMI-0200] | 93% | 100% | – | 143% | – | 72% | 110% | 88% | 97% |
